This series can be described thus: label from the status in PepcDB records.
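Also: failed if final PepcDB status was selected cloned or expressed and not failed if soluble or beyond.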

Turning to “MKSEKETIYDYAAELKLLSFKEELECTLSLAAEENWNHLQFLTELLGKESARRRECRRRSRIRSAGFPQMKYLHELVMEDMPKEAQVILPELETLDFIRQGRNLVLYGNPGTGKTHIATALGIKACQQDFTVLFTSVPVLLTQIREAKSAKTLRTLQLRFEKYDLVICDEFGYVSCDKEGGELLFNHLSLRAGKKATIITTNLAFNRWNEIIKDKVLVAAMVDRLTHKAYLVNMTGLSYRLKETQKMRQDKLEHHHHHH”, the protein production entry was “failed”.
Consider “MKSILSLFSGIGGLCHHGIAAAGLSHKFQVKQFVEISPYSQSRLRHEQPQTPIHSDITTYHCHRGQFDIVAGGLPCQGTSNAGNRQGLDDPRSALWAEQFRIIESDRPAIALIENPTGLLYRGLEQIICDLDSIGYMGEWNCISAQQVGLPHQRKRIFIIAYSNGLFNQVVPAPWSNQIGNHITQVRLSLETRSYQPGISKVASRIPIGVAKNIPGNYDARRAYGLSCSPRQAAVAWKRIDYLCSLLSYQEAS”, for which the protein production result was “failed”.
In the case of “MKSITQLENKKVLVLGLAKSGEAAARLLAKLGAIVTVNDGKAFEENPSAQSLLEEGIKVVCGGHPLELLDENFELMVKNPGIRYDNPMVARALEKEIPVWTEVELAYLVSEAPIIGITGSNGKTTTTTMIADVLNHGGKSGVLSGNIGFPASEVAQSVTNQDTLVMELSSFQLMGIESFHPHIAVITNLMPTHIDYHGSFEEYVAAKWNIQNEMTSDDFIILNFNQDLAKELATQTNAQVVPFSTVEKVDGAYLENGGLYFKGELLMHADELGVPGSHNVENALATIAVAKLSGVSNQAIKETLSSFGGVKHRLQFVDTIDDVKFYNDSKSTNILATQKALSGFDNSKVILIAGGLDRGNEFDELIPDITGLKKMVILGESAPRVKRAADKAGVTYLDAKDVADATRIAFEQASAGDVVLLSPANASWDMYKNFEVRGDEFITTVERLKG” it was “failed”; in that of “MKSKDSPIINEQFWDALFFNGTMPWDRSQTPNELKHYLKRIADKTHSVFIPGCGAAYEVSHFVDCGHDVIAMDYSAEAVNLAKSQLGQHQDKVMLGDVFNADFSREFDVIYERAFLAALPREIWGDYFAMIERLLPSNGLLVGYFVISDDYRSRFPPFCLRSGEIEQKLEANFHLIESTPVTDSVDVFKGKEQWMVWQKK”, “failed”; in that of “MKSKRGFTLLEVLVALAIFATAAISVIRSVSQHINTVNYLEEKMFAAMVVDNQMAQVMLNPQSLAAREGSEQMAGRTWYWKLSPVKTADNLLKAFDVSVATEKGATPVVTVRSYVAN”, “failed”.
As to “MKSLKGIIYAMISSGTFGLIPLFTIPLMGNMEMNESNILFYRFLFSTLMMGAVCLLHKSTLKINMKHLISIIGLGALYALTALFLIYSYHYITSGVATTIHFLYPICVSFLMVVFFKEQKSKSLFLAASLSLIGVALMCWSGGGSIRLMGIGLAALTILTYGIYIVALNQLDIGKLPAEVLTFYVLLGGCVIFFIYSLFTAGISSIPSTKAGFYILALAFLSTVISDLTLILAVKYAGSTTTAILGSMEPLVAVVVGVLVFSEHFTLQSLIGLLLILMSVIIVILADQQKKSKRITEQKIIKPH”, the protein production result is “failed”.
In the case of “MKSLYQMNHIGHPFMYPKMDITKMNKTNNQNIPNKAHNPNNSSNMNTTKKSYGTSLNYIKKENSSKNSIYNNYEYLDASHLEMLDLNKNIKNILPKPMKPSLDLESLCKETTSTMKKSKMHCMKSGENQNKNVKHFYEMGTPQIIGTYIQPLHHNTNSFNQNNFPKNHMFPLLPSSPFFQPPNFRTNLTQASSTFIPLPHANKSTNIYGMPSYLIPENKPQNLTVTVVPNKDKDSIEKEAKHLKALLDSSSKGIVNSTPDYQKIQPSTLSNYNDKESDFSFGKNDNYEHAEYSEQNCNDENDTENNYNSFVNEFYDPHNSISYNNVNEFLKNSNQKNQQHAFRLESNEEVARKVHKEFTYPKGTSLNKINILNQNYKEEGEQQQENETKNNMNMQERDEERQTMKKDSSIPKRTQLSKKKEHNNNNIVLKKHEPSTCFKNPKTYINIRLGKPKKLYITNSSDPIDKKLSEWHNTHNSQIGWKKYRRGVYTFGKTEVILSLVHDKIIVKKINGKHIKDNLLTVEKFVSLNELYEIQQEENDNMLKKRGVKFFNF” it was “failed”; in that of “MKSRPRLLLVYPATHKLGWVRRFQLPSLSLKQVAAVTPPEWEVVMADEVHEDVPFGEKFDLVGITAMTHQAVRAYEIADRFRAQGVPVVLGGIHPTVLPEEAQAHADAVLIGEAEPVWAKLLDDFLAGRLAPLYRAPIPTDDRLVIPWSRRDILAGRQYLTTQTVQASRGCPYDCPFCTVTPYFGRTFRYRNPDDVLAELRSFEGKLMVFVDDNILGDPVRAKPILEGMAGMNLRWGGQANLRFAEDPELVKLVARSGCIGIFVGIESVTGPHANHAKTGNGSSQIDLVKRVRDAGIVLEASMIFGFDDHDEGIFERTVRFLEECAPSIPTFNVLTPYPGTSLFKQFDREGRLLHKDWSRYDHGQVVFRPKQMTPERLYRGWQEARWEAYRLPAIASRVMKGKGKLVNLAYNFLRRGGIERPDRIVHIREVAEP”, “failed”.
Under “MKSSKAEKELTHQYVLNDSLHQLFDAVNIVSVQGYDEQRRVIYWNVGSELLYGYTQKEALGQKLEDLIIPKPMREIVIGAHSDWIKKGIEIPASEITLCHKNGNDVNVFSSHALFTNQYNKKQMYCIDVNLA” stands “failed”.
Under “MKSVSTWALSFFSDELSRRAVSDCYLWTTAISLLLILLLHIFFSTKFRFFTSAPSSSSSSSSSSSPSTESVPANSQSRISKLVSDEDLKFLIENLEEETNDSTEIWEHVIHKSNDRISYSAKRCKPKDGGGPMKYLSVTVFEGFSAEIVRDFYMDNDYRKLWDKTVVEHEQLQVDSNTGIEIGRTIKKFPLLTSREYVLAWRLWQGKEKKFYCFTKECDHNMVPQQRKYVRVSYFRSGWRIRQGNILSTFDTYLTDTFDTLAAVPGRNACEIKMFHQENAGLNVEMAKLAFSKGIWSYVCKMENALCKYIATSHRTQGPILSAVTLMKEVPSELETGTDNVTGSMETSSGEGVLSHVVAAKQKKKMRKPSTKLIAKGLVLVGGAICLSRGPSALGAKVALAYLLTKLNKRGTSLNQTTQTTTI” stands “failed”.
“MKSWIVKEIKINGLSYFGPLIFTVLPIAERIYKISLNSYIMINYLILVIFLSFICTYLVLSNLFNGIMYTLTYTVGISPKEIILTRLFLFSTIPVLPIAMALWMTSSLTTLAKFIIQIYILVLMSTIIGIIFKNDIIALIMDFIISALGLSVKINFLFPFLSGQLNPLSGIIVVLLLALTIYLLSNVELQKVERV”: the protein production result is reported as “failed”.
Under “MKSYMTQRLDEYRDGNEDKGRLLVSCPDQPGIVSAVSAFLFEHGANIIESNQYTTDPEGGRFFLRIEFDCAGIREKKSSLQAAFASVAEKFDMTWSLTLASELKRVAIFVSKNLHCLHELIWEWQTGNLMAEIAVVISNHEEARELVERLNIPFHYMKANKDIRAEVEKKQLELLEQYDVDVIVLARYMQILTPDFVSAHPNRIINIHHSFLPAFIGANPYKRAYERGVKLIGATSHYVTNDLDEGPIIEQDIKRVDHRDNAETLKNIGRTIERSVLARAVKWHLEDRVIVHENK” stands “not failed”; under “MKSYVLGEFGAEAALLDAARTLRARGGATLDLHSPYPLHGAEEALGLRKSTVPLVALVAGITGAVSGYLLQWYTVGYAWPLNVGNRPPHSAPAFIPVTFELGVLFSALAIFVGLLAVYFGFPRVHHPVFEVEAFRSASIDGLWLSAEVEAGDADAVAAELRRLGARLVSVVPEGK”, “failed”; under “MKTAIVTDSASYLSAADVEKYHIHVVPITVIFGHQTYLENVEITSKEFYERMRTAPELPTTTQITLGQMQTTYDQLAKAGYDAVISIHLSSGITSFITNLESYLPNVTNIKVYPFDSLITAGGEAYMVLLAAKLVTEGYSPEQVIAQLKKIRETTGVYFVVDNLSHLVRTGRLSNASGLVGNLLRIKPVLTFQDGKIVAIQKERTMRRAYAAIKAKLAAEIAAVDYPLRVTIENGNNPKLQAEWTADLKASFPDLTIDEGEIGPVVGVHVGEGVMGLIWARDWEKWTI”, “failed”.
In the case of “MKTAQHETISNREFYFVLYMMLLYVTGWVIDVNGLFLSSYFNLAGEIMLPLVGGIVGLFIMSVNKQQTK” it was “failed”.

Source of the values: a protein production outcome set (Wang et al. 2014).
